Common to all, as to assay: cell-based or functional assay
The target of assay [1] is phoDp-Jun (diaphorase derived from Pyrococcus horikoshii, Jun association site fused at the C-terminal side) (Pyrococcus horikoshii).
Assay [2] deals with ppuDp-Jun (diaphorase derived from Pseudomonas putida, Jun association site fused at the C-terminal side) (Pseudomonas putida).
For assay [3], the target named is goxDp-Dzip2 (diaphorase derived from Gluconobacter oxydans, Dzip2 association site fused at the C-terminal side) (Gluconobacter oxydans).
Assay [4] has as its target T1, goxALDH-Dzip2 (aldehyde dehydrogenase derived from Gluconobacter oxydans, Dzip2 association site fused at the C-terminal side) (Gluconobacter oxydans).
T1 sequence: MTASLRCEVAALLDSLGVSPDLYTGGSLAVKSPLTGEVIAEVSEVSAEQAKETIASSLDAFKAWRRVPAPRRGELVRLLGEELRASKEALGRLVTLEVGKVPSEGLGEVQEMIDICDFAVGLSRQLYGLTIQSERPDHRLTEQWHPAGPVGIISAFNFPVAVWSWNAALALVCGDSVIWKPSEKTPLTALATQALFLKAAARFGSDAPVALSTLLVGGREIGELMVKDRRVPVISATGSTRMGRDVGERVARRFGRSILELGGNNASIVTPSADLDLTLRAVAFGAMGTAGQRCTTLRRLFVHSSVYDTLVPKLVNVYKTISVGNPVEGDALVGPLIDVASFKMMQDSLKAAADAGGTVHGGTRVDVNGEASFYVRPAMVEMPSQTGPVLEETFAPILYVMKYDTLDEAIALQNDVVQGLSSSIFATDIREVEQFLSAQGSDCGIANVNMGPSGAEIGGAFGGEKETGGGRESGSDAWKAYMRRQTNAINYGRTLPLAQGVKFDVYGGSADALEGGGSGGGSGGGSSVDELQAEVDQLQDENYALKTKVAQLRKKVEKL

Assay [5] has as its target T2, ecoISO-Dzip2 (xylose isomerase derived from Escherichia coli, Dzip2 association site fused at the C-terminal side) (Escherichia coli) (UniProt B1X8I1).
T2 sequence: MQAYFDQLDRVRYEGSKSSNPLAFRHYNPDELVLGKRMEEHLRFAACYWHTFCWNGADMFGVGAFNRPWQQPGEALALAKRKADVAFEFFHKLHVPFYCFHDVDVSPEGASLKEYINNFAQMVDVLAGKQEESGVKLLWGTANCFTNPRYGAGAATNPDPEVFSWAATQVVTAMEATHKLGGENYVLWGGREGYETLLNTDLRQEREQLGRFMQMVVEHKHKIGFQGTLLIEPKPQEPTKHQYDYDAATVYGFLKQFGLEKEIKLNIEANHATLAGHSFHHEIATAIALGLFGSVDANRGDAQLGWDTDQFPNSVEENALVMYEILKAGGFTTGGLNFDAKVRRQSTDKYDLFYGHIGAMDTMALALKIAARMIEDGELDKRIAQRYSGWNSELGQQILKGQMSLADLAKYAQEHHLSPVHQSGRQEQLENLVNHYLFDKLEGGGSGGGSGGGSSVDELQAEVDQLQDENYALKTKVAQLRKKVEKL

B1: His-pfuGDH-Fos (glucose dehydrogenase derived from Pyrococcus furiosus, His tag, Fos association site fused at the C-terminal side) (enzyme)
chain: MGSSHHHHHHSQDPNILITASSRGIGFNVAKELLKKGHRVVISSSNEKNLEKALEELKEYEKVYPIKADLSKKEEIKNMVEKAWEILGKIDVLVWNAPNVKCEPCMIHELDYEDWVEGALLHIIAPGYLTTLLLNKWLKNNTRGIIIYLSSASVLEPMPPLLLADSTRAGLIQLAKGISRAYGKRGIRAYTVLLGSFDTPGARENLRRLAEKRGVDPEELWKKEVIERTPLQRTGKWEELGELIEFLLSDNAEYMLGSTILFDGAMTRSVLLKLGGGSGGGSLTDTLQAETDQLEDKKSALQTEIANLLKEKEKLEFILAAY
In assay [1], B1 displayed a maximum electric power (glucose fuel cell) of 126 µW/cm^2 and a shortcircuit current density (glucose fuel cell) of 1320 µA/cm^2.

B2: His-busGDH-Fos (glucose dehydrogenase derived from Bacillus subtilis, His tag, Fos association site fused at the C-terminal side) (enzyme)
chain: MGSSHHHHHHSQDPYPDLKGKVVAITGAASGLGKAMAIRFGKEQAKVVINYYSNKQDPNEVKEEVIKAGGEAVVVQGDVTKEEDVKNIVQTAIKEFGTLDIMINNAGLENPVPSHEMPLKDWDKVIGTNLTGAFLGSREAIKYFVENDIKGNVINMSSVHEVIPWPLFVHYAASKGGIKLMTETLALEYAPKGIRVNNIGPGAINTPINAEKFADPKQKADVESMIPMGYIGEPEEIAAVAAWLASKEASYVTGITLFADGGMTQYPSFQAGRGKLGGGSGGGSLTDTLQAETDQLEDKKSALQTEIANLLKEKEKLEFILAAY
In assay [2], B2 yielded a maximum electric power (glucose fuel cell) of 101 µW/cm^2 and a shortcircuit current density (glucose fuel cell) of 988 µA/cm^2.

B3: His-ppuMDH-Dzip1 (malic acid dehydrogenase derived from Pseudomonas putida, His tag, Dzip1 association site fused at the C-terminal side) (enzyme)
chain: MGSSHHHHHHSQDPSDLKTAALEYHAQPRPGKLSVELSKPTATARDLALAYSPGVAEPVREIGRDPELAYKYTGKGNLVAVISDGTAILGLGDLGPLASKPVMEGKGVLFKRFAGIDVFDIEVESESPQAFIDTVRRISITFGGINLEDIKAPECFEIERTLIEQCDIPVFHDDQHGTAIVTAAGMINALEIAGKKLEEAKIVCLGAGAAAISCMKLLVSMGAKVENIFMIDRSGVIHAGRDDLNQYKAQFAHATDKRTLADALDGADVFVGLSGPNLLSPEGLKSMAANPIVFACSNPDPEISPELAHATRNDVIMATGRSDYPNQVNNVLGFPFIFRGALDVRAKRINEEMKIAAAIALKDLAKLPVPKEVCEAYGVEGLEFGREYIIPKPLDARLITVVSDAVAKAAIESGVATLPYPKHYPLTSVDEVFNGKLGGGSGGGSGGGSTVAQLEEKVKTLRAQNYELKSRVQRLREQVAQLA
With B3, in assay [3], the maximum electric power (malic acid fuel cell) was 99 µW/cm^2 and the shortcircuit current density (malic acid fuel cell) was determined as 1030 µA/cm^2.

B4: His-lplLDH-Dzip1 (lactic acid dehydrogenase derived from Lactobacillus plantarum, His tag, Dzip1 association site fused at the C-terminal side) (enzyme)
chain: MGSSHHHHHHSQDPSSMPNHQKVVLVGDGAVGSSYAFAMAQQGIAEEFVIVDVVKDRTKGDALDLEDAQAFTAPKKIYSGEYSDCKDADLVVITAGAPQKPGESRLDLVNKNLNILSSIVKPVVDSGFDGIFLVAANPVDILTYATWKFSGFPKDRVIGSGTSLDSSRLRVALGKQFNVDPRSVDAYIMGEHGDSEFAAYSTATIGTRPVRDVAKEQGVSDEDLAKLEDGVRNKAYDIINLKGATFYGIGTALMRISKAILRDENAVLPVGAYMDGQYGLNDIYIGTPAVIGGTGLKQIIESPLSADELKKMQDSAATLKKVLNDGLAELENKKLGGGSGGGSGGGSTVAQLEEKVKTLRAQNYELKSRVQRLREQVAQLA
In assay [3], B4 gave a maximum electric power (lactic acid fuel cell) of 121 µW/cm^2 and a shortcircuit current density (lactic acid fuel cell) of 1330 µA/cm^2.

B5: His-sceADH-Dzip1 (alcohol dehydrogenase derived from Saccharomyces cerevisiae, His tag, Dzip1 association site fused at the C-terminal side) (enzyme)
chain: MGSSHHHHHHSQDPPSQVIPEKQKAIVFYETDGKLEYKDVTVPEPKPNEILVHVKYSGVCHSDLHAWHGDWPFQLKFPLIGGHEGAGVVVKLGSNVKGWKVGDFAGIKWLNGTCMSCEYCEVGNESQCPYLDGTGFTHDGTFQEYATADAVQAAHIPPNVNLAEVAPILCAGITVYKALKRANVIPGQWVTISGACGGLGSLAIQYALAMGYRVIGIDGGNAKRKLFEQLGGEIFIDFTEEKDIVGAIIKATNGGSHGVINVSVSEAAIEASTRYCRPNGTVVLVGMPAHAYCNSDVFNQVVKSISIVGSCVGNRADTREALDFFARGLIKSPIHLAGLSDVPEIFAKMEKGEIVGRYVVETSKKLGGGSGGGSGGGSTVAQLEEKVKTLRAQNYELKSRVQRLREQVAQLA
In the case of B5, in assay [4], the maximum electric power (alcohol fuel cell) came out at 173 µW/cm^2 and the shortcircuit current density (alcohol fuel cell) was 1620 µA/cm^2.

B6: His-busGDH-Dzip1 (glucose dehydrogenase derived from Bacillus subtilis, His tag, Dzip1 association site fused at the C-terminal side) (enzyme)
chain: MGSSHHHHHHSQDPYPDLKGKVVAITGAASGLGKAMAIRFGKEQAKVVINYYSNKQDPNEVKEEVIKAGGEAVVVQGDVTKEEDVKNIVQTAIKEFGTLDIMINNAGLENPVPSHEMPLKDWDKVIGTNLTGAFLGSREAIKYFVENDIKGNVINMSSVHEVIPWPLFVHYAASKGGIKLMTETLALEYAPKGIRVNNIGPGAINTPINAEKFADPKQKADVESMIPMGYIGEPEEIAAVAAWLASKEASYVTGITLFADGGMTQYPSFQAGRGKLGGGSGGGSGGGSTVAQLEEKVKTLRAQNYELKSRVQRLREQVAQLA
Turning to B6, in assay [5], the maximum electric power (fructose fuel cell) turned out to be 101 µW/cm^2 and the shortcircuit current density (fructose fuel cell) is 1110 µA/cm^2.

B7: His-sceADH-Fos (alcohol dehydrogenase derived from Saccharomyces cerevisiae, His tag, Fos association site fused at the C-terminal side) (enzyme)
chain: MGSSHHHHHHSQDPPSQVIPEKQKAIVFYETDGKLEYKDVTVPEPKPNEILVHVKYSGVCHSDLHAWHGDWPFQLKFPLIGGHEGAGVVVKLGSNVKGWKVGDFAGIKWLNGTCMSCEYCEVGNESQCPYLDGTGFTHDGTFQEYATADAVQAAHIPPNVNLAEVAPILCAGITVYKALKRANVIPGQWVTISGACGGLGSLAIQYALAMGYRVIGIDGGNAKRKLFEQLGGEIFIDFTEEKDIVGAIIKATNGGSHGVINVSVSEAAIEASTRYCRPNGTVVLVGMPAHAYCNSDVFNQVVKSISIVGSCVGNRADTREALDFFARGLIKSPIHLAGLSDVPEIFAKMEKGEIVGRYVVETSKKLGGGSGGGSLTDTLQAETDQLEDKKSALQTEIANLLKEKEKLEFILAAY
In assay [2], B7 showed a maximum electric power (alcohol fuel cell) of 80 µW/cm^2 and a shortcircuit current density (alcohol fuel cell) of 821 µA/cm^2.

Source of the values: US20070131547A1.
